T1: TNFR1 (Homo sapiens, UniProt P19438)
T1 chain: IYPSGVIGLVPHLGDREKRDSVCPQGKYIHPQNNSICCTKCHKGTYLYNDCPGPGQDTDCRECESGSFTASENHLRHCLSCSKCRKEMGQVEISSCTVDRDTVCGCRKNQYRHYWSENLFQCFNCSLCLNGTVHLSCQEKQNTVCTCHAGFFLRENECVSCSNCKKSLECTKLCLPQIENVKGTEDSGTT


Target: T1, TNFR1
Assay: yeast display SC50

Binder	apparent Kd (screen) [pM]
L64M (designed binder) MTLQELLREEALRRAEAEAFRYALELLAEKFPEQKEYLLDLAEEIESQIRSLSGVDVEDVRKFMDKEWAWVKELLAEHPAELAEVEAARAARLAELRAEVEAKVAA	653
E36C (designed binder) MTLQELLREEALRRAEAEAFRYALELLAEKFPEQKCYLLDLAEEIESQIRSLSGVDVEDVRKFLDKEWAWVKELLAEHPAELAEVEAARAARLAELRAEVEAKVAA	539
F31L (designed binder) MTLQELLREEALRRAEAEAFRYALELLAEKLPEQKEYLLDLAEEIESQIRSLSGVDVEDVRKFLDKEWAWVKELLAEHPAELAEVEAARAARLAELRAEVEAKVAA	869
K72R (designed binder) MTLQELLREEALRRAEAEAFRYALELLAEKFPEQKEYLLDLAEEIESQIRSLSGVDVEDVRKFLDKEWAWVRELLAEHPAELAEVEAARAARLAELRAEVEAKVAA	869
E43V (designed binder) MTLQELLREEALRRAEAEAFRYALELLAEKFPEQKEYLLDLAVEIESQIRSLSGVDVEDVRKFLDKEWAWVKELLAEHPAELAEVEAARAARLAELRAEVEAKVAA	539
E9C (designed binder) MTLQELLRCEALRRAEAEAFRYALELLAEKFPEQKEYLLDLAEEIESQIRSLSGVDVEDVRKFLDKEWAWVKELLAEHPAELAEVEAARAARLAELRAEVEAKVAA	405
M1T (designed binder) TTLQELLREEALRRAEAEAFRYALELLAEKFPEQKEYLLDLAEEIESQIRSLSGVDVEDVRKFLDKEWAWVKELLAEHPAELAEVEAARAARLAELRAEVEAKVAA	490
Y37H (designed binder) MTLQELLREEALRRAEAEAFRYALELLAEKFPEQKEHLLDLAEEIESQIRSLSGVDVEDVRKFLDKEWAWVKELLAEHPAELAEVEAARAARLAELRAEVEAKVAA	11400
S51T (designed binder) MTLQELLREEALRRAEAEAFRYALELLAEKFPEQKEYLLDLAEEIESQIRTLSGVDVEDVRKFLDKEWAWVKELLAEHPAELAEVEAARAARLAELRAEVEAKVAA	405
S51K (designed binder) MTLQELLREEALRRAEAEAFRYALELLAEKFPEQKEYLLDLAEEIESQIRKLSGVDVEDVRKFLDKEWAWVKELLAEHPAELAEVEAARAARLAELRAEVEAKVAA	1270
G54C (designed binder) MTLQELLREEALRRAEAEAFRYALELLAEKFPEQKEYLLDLAEEIESQIRSLSCVDVEDVRKFLDKEWAWVKELLAEHPAELAEVEAARAARLAELRAEVEAKVAA	24400
S53R (designed binder) MTLQELLREEALRRAEAEAFRYALELLAEKFPEQKEYLLDLAEEIESQIRSLRGVDVEDVRKFLDKEWAWVKELLAEHPAELAEVEAARAARLAELRAEVEAKVAA	2050
E67K (designed binder) MTLQELLREEALRRAEAEAFRYALELLAEKFPEQKEYLLDLAEEIESQIRSLSGVDVEDVRKFLDKKWAWVKELLAEHPAELAEVEAARAARLAELRAEVEAKVAA	2730
E58D (designed binder) MTLQELLREEALRRAEAEAFRYALELLAEKFPEQKEYLLDLAEEIESQIRSLSGVDVDDVRKFLDKEWAWVKELLAEHPAELAEVEAARAARLAELRAEVEAKVAA	539
R21L (designed binder) MTLQELLREEALRRAEAEAFLYALELLAEKFPEQKEYLLDLAEEIESQIRSLSGVDVEDVRKFLDKEWAWVKELLAEHPAELAEVEAARAARLAELRAEVEAKVAA	653
R61T (designed binder) MTLQELLREEALRRAEAEAFRYALELLAEKFPEQKEYLLDLAEEIESQIRSLSGVDVEDVTKFLDKEWAWVKELLAEHPAELAEVEAARAARLAELRAEVEAKVAA	593
Q48R (designed binder) MTLQELLREEALRRAEAEAFRYALELLAEKFPEQKEYLLDLAEEIESRIRSLSGVDVEDVRKFLDKEWAWVKELLAEHPAELAEVEAARAARLAELRAEVEAKVAA	1860
S51P (designed binder) MTLQELLREEALRRAEAEAFRYALELLAEKFPEQKEYLLDLAEEIESQIRPLSGVDVEDVRKFLDKEWAWVKELLAEHPAELAEVEAARAARLAELRAEVEAKVAA	593
G54S (designed binder) MTLQELLREEALRRAEAEAFRYALELLAEKFPEQKEYLLDLAEEIESQIRSLSSVDVEDVRKFLDKEWAWVKELLAEHPAELAEVEAARAARLAELRAEVEAKVAA	956
R50F (designed binder) MTLQELLREEALRRAEAEAFRYALELLAEKFPEQKEYLLDLAEEIESQIFSLSGVDVEDVRKFLDKEWAWVKELLAEHPAELAEVEAARAARLAELRAEVEAKVAA	1160
L3Q (designed binder) MTQQELLREEALRRAEAEAFRYALELLAEKFPEQKEYLLDLAEEIESQIRSLSGVDVEDVRKFLDKEWAWVKELLAEHPAELAEVEAARAARLAELRAEVEAKVAA	22200
A19C (designed binder) MTLQELLREEALRRAEAECFRYALELLAEKFPEQKEYLLDLAEEIESQIRSLSGVDVEDVRKFLDKEWAWVKELLAEHPAELAEVEAARAARLAELRAEVEAKVAA	490

Second part, the binder after the results:

apparent Kd (screen) [pM]	Binder
869	A80V (designed binder) MTLQELLREEALRRAEAEAFRYALELLAEKFPEQKEYLLDLAEEIESQIRSLSGVDVEDVRKFLDKEWAWVKELLAEHPVELAEVEAARAARLAELRAEVEAKVAA
956	R92A (designed binder) MTLQELLREEALRRAEAEAFRYALELLAEKFPEQKEYLLDLAEEIESQIRSLSGVDVEDVRKFLDKEWAWVKELLAEHPAELAEVEAARAAALAELRAEVEAKVAA
869	A90F (designed binder) MTLQELLREEALRRAEAEAFRYALELLAEKFPEQKEYLLDLAEEIESQIRSLSGVDVEDVRKFLDKEWAWVKELLAEHPAELAEVEAARFARLAELRAEVEAKVAA
718	A83V (designed binder) MTLQELLREEALRRAEAEAFRYALELLAEKFPEQKEYLLDLAEEIESQIRSLSGVDVEDVRKFLDKEWAWVKELLAEHPAELVEVEAARAARLAELRAEVEAKVAA
653	R97L (designed binder) MTLQELLREEALRRAEAEAFRYALELLAEKFPEQKEYLLDLAEEIESQIRSLSGVDVEDVRKFLDKEWAWVKELLAEHPAELAEVEAARAARLAELLAEVEAKVAA
593	E95D (designed binder) MTLQELLREEALRRAEAEAFRYALELLAEKFPEQKEYLLDLAEEIESQIRSLSGVDVEDVRKFLDKEWAWVKELLAEHPAELAEVEAARAARLADLRAEVEAKVAA
539	A87V (designed binder) MTLQELLREEALRRAEAEAFRYALELLAEKFPEQKEYLLDLAEEIESQIRSLSGVDVEDVRKFLDKEWAWVKELLAEHPAELAEVEVARAARLAELRAEVEAKVAA
1270	E86R (designed binder) MTLQELLREEALRRAEAEAFRYALELLAEKFPEQKEYLLDLAEEIESQIRSLSGVDVEDVRKFLDKEWAWVKELLAEHPAELAEVRAARAARLAELRAEVEAKVAA
790	E81C (designed binder) MTLQELLREEALRRAEAEAFRYALELLAEKFPEQKEYLLDLAEEIESQIRSLSGVDVEDVRKFLDKEWAWVKELLAEHPACLAEVEAARAARLAELRAEVEAKVAA
446	A80W (designed binder) MTLQELLREEALRRAEAEAFRYALELLAEKFPEQKEYLLDLAEEIESQIRSLSGVDVEDVRKFLDKEWAWVKELLAEHPWELAEVEAARAARLAELRAEVEAKVAA
2050	A76P (designed binder) MTLQELLREEALRRAEAEAFRYALELLAEKFPEQKEYLLDLAEEIESQIRSLSGVDVEDVRKFLDKEWAWVKELLPEHPAELAEVEAARAARLAELRAEVEAKVAA
869	A105W (designed binder) MTLQELLREEALRRAEAEAFRYALELLAEKFPEQKEYLLDLAEEIESQIRSLSGVDVEDVRKFLDKEWAWVKELLAEHPAELAEVEAARAARLAELRAEVEAKVWA
790	L74H (designed binder) MTLQELLREEALRRAEAEAFRYALELLAEKFPEQKEYLLDLAEEIESQIRSLSGVDVEDVRKFLDKEWAWVKEHLAEHPAELAEVEAARAARLAELRAEVEAKVAA
